Data published in IntAct's records for PubMed 18055455.

B1: Mothers against decapentaplegic homolog 3 (Rattus norvegicus (Rat)), P84025 (parent)
chain: MSSILPFTPPIVKRLLGWKKGEQNGQEEKWCEKAVKSLVKKLKKTGQLDELEKAITTQNVNTKCITIPRSLDGRLQVSHRKGLPHVIYCRLWRWPDLHSHHELRAMELCEFAFNMKKDEVCVNPYHYQRVETPVLPPVLVPRHTEIPAEFPPLDDYSHSIPENTNFPAGIEPQSNIPETPPPGYLSEDGETSDHQMNHSMDAGSPNLSPNPMSPAHNNLDLQPVTYCEPAFWCSISYYELNQRVGETFHASQPSMTVDGFTDPSNSERFCLGLLSNVNRNAAVELTRRHIGRGVRLYYIGGEVFAECLSDSAIFVQSPNCNQRYGWHPATVCKIPPGCNLKIFNNQEFAALLAQSVNQGFEAVYQLTRMCTIRMSFVKGWGAEYRRQTVTSTPCWIELHLNGPLQWLDKVLTQMGSPSIRCSSVS

Variants of: B1
Details: with ncap_sars N

Variant | effect of a mutation on the interaction
S422A;S423A;S425A | with no effect
S423D;S425D | with no effect
